Reference: patent publication US20250011453A1, “METHODS FOR TREATING CANCER USING A COMBINATION OF A PD-1 ANTAGONIST, AN ILT4 ANTAGONIST, AND CHEMOTHERAPEUTIC AGENTS” (Merck Sharp & Dohme LLC, priority 2021, published 2025)

Test: Phase 1 open label, multi-arm, multi-center study of MK-4830 as monotherapy or in combination with pembrolizumab (NCT03564691): safety and tolerability
Format: in vivo, human

Substance: MK-4830: anti-ILT4 antibody; light chain SEQ ID NO:5, heavy chain SEQ ID NO:10 (Table 4)
- Grade 3 drug-related AE (1600 mg dose level, MK-4830 monotherapy cohort): one episode of transient Grade 3 blood pressure increase
- participants with one or more drug-related AEs (51 treated participants (monotherapy and pembrolizumab combination pooled), preliminary data, majority Grade 1): 51%
- Grade 4 or 5 drug-related AEs or SAEs (all participants (51 treated), preliminary data): no Grade 4 or 5 drug-related AEs or SAEs
- target dose limiting toxicity (DLT) rate (participants with advanced solid tumors, MK-4830 monotherapy up to 1600 mg and MK-4830 up to 800 mg plus pembrolizumab, May 10, 2019 data cutoff): not reached in any of the cohorts
